Patent US5731419

Target: glutathione reductase (Type III, Sigma)

Work on “WCOR410 protein, expressed from pET22b and purified with the His*Bind buffer kit” yielded a remaining glutathione reductase activity after denaturation (percent of control) (% of control activity (-20° C., 1 µg/ml)) of 42.

With “Wcs120 protein (50 kDa protein), expressed in E. coli from pET11a and purified” the remaining glutathione reductase activity after denaturation (percent of control) (% of control activity (-20° C., 1 µg/ml)) was 40.

Substance “Bovine serum albumin (Pharmacia, DNase free 10 mg/ml) (from UniProt P02769)” has a remaining glutathione reductase activity after denaturation (percent of control) (scale: % of control activity) of 71.
